Target: T1, GST-tagged TOP-2 (C. elegans, UniProt Q23670 1-1520)
T1 construct: TOP-2, topoisomerase II of C. elegans; also called topoisomerase II; source: E. coli BL21, purified (glutathione sepharose 4B)
Assay: pull-down; 3 μg GST-tagged protein on glutathione sepharose 4B beads with 1 μg HIS-tagged NMAD-1 in TAP wash buffer (50 mM Tris-HCl pH 8.0, 100 mM KCl), 1 h at 4 °C; blot probed with HIS antibody
Settings: both partners purified

T1 sequence (Q23670 whole entry): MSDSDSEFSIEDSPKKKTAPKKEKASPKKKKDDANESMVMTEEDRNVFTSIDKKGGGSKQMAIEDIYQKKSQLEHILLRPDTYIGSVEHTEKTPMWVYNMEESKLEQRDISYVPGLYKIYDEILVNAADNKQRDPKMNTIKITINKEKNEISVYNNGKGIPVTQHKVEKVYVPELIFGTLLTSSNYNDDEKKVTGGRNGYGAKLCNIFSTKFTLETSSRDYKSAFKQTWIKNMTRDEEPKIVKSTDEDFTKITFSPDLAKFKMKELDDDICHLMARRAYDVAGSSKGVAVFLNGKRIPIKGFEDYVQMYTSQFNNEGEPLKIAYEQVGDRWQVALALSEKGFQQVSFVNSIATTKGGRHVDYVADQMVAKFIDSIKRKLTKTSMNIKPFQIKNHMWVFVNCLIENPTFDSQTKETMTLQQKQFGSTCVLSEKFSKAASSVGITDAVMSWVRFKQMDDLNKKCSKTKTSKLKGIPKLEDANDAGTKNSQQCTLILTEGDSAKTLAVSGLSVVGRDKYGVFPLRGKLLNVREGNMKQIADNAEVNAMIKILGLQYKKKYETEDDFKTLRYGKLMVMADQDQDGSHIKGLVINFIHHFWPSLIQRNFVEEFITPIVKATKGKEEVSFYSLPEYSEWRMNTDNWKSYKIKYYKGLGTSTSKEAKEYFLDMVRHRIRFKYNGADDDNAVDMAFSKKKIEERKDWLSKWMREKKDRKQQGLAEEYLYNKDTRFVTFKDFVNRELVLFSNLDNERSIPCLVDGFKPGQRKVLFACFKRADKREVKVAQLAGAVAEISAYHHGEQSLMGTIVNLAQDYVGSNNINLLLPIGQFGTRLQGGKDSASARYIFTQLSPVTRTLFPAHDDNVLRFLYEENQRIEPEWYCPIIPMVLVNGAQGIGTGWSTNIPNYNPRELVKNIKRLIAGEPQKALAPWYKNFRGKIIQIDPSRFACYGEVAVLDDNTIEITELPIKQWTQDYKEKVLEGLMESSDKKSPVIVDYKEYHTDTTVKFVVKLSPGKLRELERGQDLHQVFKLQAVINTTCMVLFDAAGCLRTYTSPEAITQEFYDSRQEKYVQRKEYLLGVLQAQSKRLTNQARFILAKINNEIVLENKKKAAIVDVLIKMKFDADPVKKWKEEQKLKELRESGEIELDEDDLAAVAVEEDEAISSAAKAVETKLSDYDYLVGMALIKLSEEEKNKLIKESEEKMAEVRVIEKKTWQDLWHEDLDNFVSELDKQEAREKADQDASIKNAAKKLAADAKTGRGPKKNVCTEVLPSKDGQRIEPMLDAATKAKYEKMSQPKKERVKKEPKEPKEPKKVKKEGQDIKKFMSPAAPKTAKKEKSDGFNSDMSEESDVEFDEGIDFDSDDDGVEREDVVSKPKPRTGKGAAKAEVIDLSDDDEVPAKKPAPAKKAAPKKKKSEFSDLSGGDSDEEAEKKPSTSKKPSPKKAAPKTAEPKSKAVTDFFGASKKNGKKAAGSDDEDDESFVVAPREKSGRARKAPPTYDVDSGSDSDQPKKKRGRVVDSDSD

B1: recombinant His-tagged NMAD-1 (enzyme, C. elegans, UniProt Q8MNT9 1-291, looked up)
chain: MGSAEQACGCKGARFCALCETTERVKKLRVVEDKHVNYKVFIYDHIRQIAIPTTNLNSQSSLEDIIDESTSCQSVSTDGSIEIDGLTLIHNFLSESEESKILNMIDTVEWAQSQSGRRKQDYGPKVNFKHKKVKTDTFVGMPEYADMLLNKMSEYDVKKLGNYQPFEMCNLEYEEVKKSAIEMHQDDMWIWGNRLISINLINGSVMTLSNDNKSFLCYVHMPHRSLLCMADECRYDWKHGVLAHHIRGRRIALTMREAAKDFAEGGELYEKYGAELIRLGNIRVPLSKTSV
notes: NMAD-1 (F09F7.7) of C. elegans; also called HIS:NMAD-1; source: E. coli BL21, purified (Ni-NTA)
  binding result: binds

Source: PMC6638966, “The demethylase NMAD-1 regulates DNA replication and repair in the Caenorhabditis elegans germline” (PLoS Genetics, 2019)
